{
  "source": "patent US20140113854",
  "data": [
    {"substance": "Human α-thrombin", "values": [
      {"measurement": "cleavage of the peptide by thrombin, HPLC of the intact peptide, 75 µM peptide, 23 nM thrombin, 37 °C", "setting": "BRI-T218", "result": "completely converted to the cleavage products within two hours under the specific experimental conditions"},
      {"measurement": "cleavage of the peptide by thrombin, HPLC of the intact peptide, 75 µM peptide, 23 nM thrombin, 37 °C", "setting": "BRI-T208", "result": "BRI-T208 is significantly more resisitent to thrombin cleavage than BRI-T218"}
    ]}
  ]
}
